Experimental data published in PMC4132754 (Nucleic Acids Research, 2014).

Assays:
Assay in all cases: MST
[1] = molecular target: T1, UPF1 ΔStalk (human, UniProt Q92900-2 1-1118, del271-433)
T1 sequence: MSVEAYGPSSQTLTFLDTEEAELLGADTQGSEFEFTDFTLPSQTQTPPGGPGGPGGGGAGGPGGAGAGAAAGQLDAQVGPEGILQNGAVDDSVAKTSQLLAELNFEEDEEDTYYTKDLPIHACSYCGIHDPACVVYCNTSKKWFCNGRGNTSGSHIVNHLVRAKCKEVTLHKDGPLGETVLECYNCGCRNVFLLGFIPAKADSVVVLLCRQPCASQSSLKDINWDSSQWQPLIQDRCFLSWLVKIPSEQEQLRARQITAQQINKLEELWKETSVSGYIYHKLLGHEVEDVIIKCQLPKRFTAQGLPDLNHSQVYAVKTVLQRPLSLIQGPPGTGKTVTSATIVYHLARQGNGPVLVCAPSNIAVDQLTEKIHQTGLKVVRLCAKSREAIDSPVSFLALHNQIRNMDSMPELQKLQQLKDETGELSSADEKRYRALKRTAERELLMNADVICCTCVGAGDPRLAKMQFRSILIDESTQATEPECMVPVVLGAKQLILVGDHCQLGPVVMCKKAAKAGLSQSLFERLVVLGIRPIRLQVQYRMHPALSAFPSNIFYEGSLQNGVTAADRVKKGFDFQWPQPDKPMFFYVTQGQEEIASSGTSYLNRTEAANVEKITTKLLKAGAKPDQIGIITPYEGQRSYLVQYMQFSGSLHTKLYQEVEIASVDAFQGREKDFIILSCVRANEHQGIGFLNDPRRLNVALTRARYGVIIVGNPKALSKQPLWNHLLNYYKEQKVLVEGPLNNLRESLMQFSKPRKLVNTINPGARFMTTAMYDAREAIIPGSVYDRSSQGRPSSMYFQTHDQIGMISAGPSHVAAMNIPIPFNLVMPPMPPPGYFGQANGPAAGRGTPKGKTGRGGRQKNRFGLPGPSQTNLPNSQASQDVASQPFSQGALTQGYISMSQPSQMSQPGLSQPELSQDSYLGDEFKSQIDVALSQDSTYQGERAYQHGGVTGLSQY

[2] = molecular target: T2, UPF1 WT (human, UniProt Q92900-2 1-1118)
T2 sequence: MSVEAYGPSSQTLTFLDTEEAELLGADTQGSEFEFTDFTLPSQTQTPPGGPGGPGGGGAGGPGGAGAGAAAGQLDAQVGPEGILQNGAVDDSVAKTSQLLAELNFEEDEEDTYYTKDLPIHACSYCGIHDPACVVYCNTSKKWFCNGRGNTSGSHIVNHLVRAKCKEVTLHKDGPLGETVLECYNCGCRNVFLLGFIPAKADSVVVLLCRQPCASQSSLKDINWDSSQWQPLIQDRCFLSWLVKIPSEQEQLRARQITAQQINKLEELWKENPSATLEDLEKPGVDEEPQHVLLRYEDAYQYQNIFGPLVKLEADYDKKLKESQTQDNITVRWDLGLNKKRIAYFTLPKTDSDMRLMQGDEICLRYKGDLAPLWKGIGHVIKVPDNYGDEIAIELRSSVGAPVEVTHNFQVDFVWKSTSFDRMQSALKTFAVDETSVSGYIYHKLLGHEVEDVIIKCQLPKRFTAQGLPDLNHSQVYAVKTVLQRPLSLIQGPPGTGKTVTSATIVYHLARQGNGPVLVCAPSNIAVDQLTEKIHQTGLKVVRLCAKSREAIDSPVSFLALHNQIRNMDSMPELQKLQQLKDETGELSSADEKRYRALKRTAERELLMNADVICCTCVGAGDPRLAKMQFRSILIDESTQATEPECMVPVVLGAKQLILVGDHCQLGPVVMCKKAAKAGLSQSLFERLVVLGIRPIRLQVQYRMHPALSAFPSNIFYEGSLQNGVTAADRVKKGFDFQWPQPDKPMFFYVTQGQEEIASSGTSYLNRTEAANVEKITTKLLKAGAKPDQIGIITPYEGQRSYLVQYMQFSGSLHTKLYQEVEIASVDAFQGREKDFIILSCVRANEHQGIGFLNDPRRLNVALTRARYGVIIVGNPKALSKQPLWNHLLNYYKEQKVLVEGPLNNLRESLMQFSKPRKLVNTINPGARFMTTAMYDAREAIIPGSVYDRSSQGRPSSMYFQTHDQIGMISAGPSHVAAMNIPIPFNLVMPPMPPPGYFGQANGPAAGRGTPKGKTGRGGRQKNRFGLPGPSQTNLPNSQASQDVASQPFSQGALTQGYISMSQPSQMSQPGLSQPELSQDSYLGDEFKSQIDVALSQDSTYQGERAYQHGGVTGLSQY

[3] = molecular target: SMG6 (human, UniProt Q86US8 1-1419)
[4] = molecular target: T3, UPF1 Δ1C (human, UniProt Q92900-2 1-1118, del561-608)
T3 sequence: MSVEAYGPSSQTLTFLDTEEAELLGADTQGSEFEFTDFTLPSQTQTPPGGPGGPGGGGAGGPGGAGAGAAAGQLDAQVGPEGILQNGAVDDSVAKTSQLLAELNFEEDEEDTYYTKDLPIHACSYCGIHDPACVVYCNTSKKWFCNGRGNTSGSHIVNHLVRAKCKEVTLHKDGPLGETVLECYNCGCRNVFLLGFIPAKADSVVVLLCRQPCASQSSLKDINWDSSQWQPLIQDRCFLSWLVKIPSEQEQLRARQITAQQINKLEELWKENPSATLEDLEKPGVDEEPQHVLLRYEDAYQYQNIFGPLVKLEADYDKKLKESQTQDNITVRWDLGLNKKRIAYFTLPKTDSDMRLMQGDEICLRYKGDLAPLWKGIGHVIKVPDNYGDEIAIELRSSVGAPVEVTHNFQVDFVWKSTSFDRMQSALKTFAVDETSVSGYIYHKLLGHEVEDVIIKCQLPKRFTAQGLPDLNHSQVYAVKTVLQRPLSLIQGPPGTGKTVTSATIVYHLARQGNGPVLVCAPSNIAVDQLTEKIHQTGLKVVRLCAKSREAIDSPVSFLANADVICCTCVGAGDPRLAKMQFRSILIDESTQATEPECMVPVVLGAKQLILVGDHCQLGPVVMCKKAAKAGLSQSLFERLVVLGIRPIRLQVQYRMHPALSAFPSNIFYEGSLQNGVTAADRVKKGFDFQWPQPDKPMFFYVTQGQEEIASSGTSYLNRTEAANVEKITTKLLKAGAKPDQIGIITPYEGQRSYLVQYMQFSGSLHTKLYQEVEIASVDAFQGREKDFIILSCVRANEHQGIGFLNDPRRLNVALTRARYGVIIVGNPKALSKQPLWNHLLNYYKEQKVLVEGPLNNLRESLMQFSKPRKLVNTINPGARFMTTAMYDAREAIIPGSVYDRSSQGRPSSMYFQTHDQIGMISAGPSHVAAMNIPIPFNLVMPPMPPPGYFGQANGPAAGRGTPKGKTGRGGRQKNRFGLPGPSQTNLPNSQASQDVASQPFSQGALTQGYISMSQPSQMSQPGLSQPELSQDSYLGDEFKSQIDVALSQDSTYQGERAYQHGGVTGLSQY

Chain of SMG6 (Q86US8 whole entry): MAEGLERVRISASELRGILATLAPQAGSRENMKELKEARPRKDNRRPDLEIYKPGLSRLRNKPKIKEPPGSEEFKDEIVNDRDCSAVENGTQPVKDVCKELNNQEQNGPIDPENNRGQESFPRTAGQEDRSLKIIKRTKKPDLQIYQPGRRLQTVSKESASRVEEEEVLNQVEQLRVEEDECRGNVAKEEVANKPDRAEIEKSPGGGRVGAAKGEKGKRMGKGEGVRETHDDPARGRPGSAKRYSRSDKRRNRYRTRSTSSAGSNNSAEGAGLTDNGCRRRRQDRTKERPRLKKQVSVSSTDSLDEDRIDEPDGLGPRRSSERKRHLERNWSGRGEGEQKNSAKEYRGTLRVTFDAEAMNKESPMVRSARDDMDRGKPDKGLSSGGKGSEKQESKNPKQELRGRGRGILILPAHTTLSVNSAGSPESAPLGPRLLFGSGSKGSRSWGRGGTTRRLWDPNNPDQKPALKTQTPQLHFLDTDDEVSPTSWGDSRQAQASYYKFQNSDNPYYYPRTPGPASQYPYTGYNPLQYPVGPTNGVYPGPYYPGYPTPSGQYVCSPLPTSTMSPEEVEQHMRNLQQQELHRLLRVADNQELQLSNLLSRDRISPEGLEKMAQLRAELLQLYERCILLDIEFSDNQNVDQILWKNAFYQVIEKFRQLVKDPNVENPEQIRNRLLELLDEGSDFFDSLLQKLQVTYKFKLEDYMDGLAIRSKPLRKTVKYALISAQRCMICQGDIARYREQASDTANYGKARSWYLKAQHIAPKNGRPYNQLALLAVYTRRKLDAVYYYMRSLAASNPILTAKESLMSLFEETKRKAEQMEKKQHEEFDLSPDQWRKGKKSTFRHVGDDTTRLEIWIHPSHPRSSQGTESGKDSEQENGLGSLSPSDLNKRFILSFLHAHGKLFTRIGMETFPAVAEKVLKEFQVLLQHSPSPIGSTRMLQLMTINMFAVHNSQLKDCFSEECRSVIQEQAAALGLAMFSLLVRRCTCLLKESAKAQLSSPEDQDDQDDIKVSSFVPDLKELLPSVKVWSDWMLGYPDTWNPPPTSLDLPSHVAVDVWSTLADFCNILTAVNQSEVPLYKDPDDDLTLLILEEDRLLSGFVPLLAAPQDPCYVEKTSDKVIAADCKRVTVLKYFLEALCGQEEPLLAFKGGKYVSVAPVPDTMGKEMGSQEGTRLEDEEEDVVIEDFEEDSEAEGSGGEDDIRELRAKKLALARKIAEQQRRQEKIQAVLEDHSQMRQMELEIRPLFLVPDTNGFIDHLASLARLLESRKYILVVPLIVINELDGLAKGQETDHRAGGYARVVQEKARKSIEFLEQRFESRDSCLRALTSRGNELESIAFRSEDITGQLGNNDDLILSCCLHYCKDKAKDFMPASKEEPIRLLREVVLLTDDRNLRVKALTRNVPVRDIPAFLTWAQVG

For UUUUUUUUUUUUUUUUUUUUUUUUUUUUUU (ssRNA) [U30 RNA], the Kd [1] was 6.51 nM, the Kd [2] was 1.48 nM and the binding result [3] was “no binding”. The binding signal [4] was 32.2 fold lower affinity than WT.
